The numbers were not newly measured in patent US12599654B2, “Immunogenic peptide fragments of metalloprotease ADAMTS-7 and uses thereof in anti-atherosclerosis and related diseases” (BEIJING KIMWAY BIOTECH CO. LTD, priority 2019, dated 2026), which cites them from elsewhere.

The target in this data set is T1, proprotein convertase subtilisin/kexin type 9 (PCSK9) (Homo sapiens, UniProt Q8NBP7).
T1 construct: host or cells: human trial subjects (endogenous circulating PCSK9)
To be noted: low-dose, phase I clinical trials; cited from earlier work.

With “REGN727: monoclonal antibody against the proprotein convertase subtilisin/kexin type 9 (PCSK9)”, the “reduction of LDL level of subjects” value is recorded as “more than 30%”.
